From article PMC4293345
Where two headings read alike, the source gives them in different places.

Assays:
[1] = target: MBP-tagged NCS-1 (neuronal calcium sensor-1) (UniProt P62166); experiment: pull-down
[2] = target: MBP-tagged NCS-1 (neuronal calcium sensor-1) (UniProt P62166); experiment: pull-down; remark: listed apart in the source

Sequence of MBP-tagged NCS-1 (neuronal calcium sensor-1) (P62166 whole entry): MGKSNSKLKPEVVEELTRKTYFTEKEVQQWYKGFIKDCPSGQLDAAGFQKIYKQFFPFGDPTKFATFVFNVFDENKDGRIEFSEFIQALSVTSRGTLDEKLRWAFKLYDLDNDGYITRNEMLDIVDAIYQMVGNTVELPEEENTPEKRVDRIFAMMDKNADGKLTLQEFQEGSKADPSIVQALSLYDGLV

relative binding (ratio of IMAA-GST to NCS-1-MBP) [1]: 0.24 | relative binding (ratio of IMAA-GST to NCS-1-MBP) [2]: 0.29
Substance: GST-tagged IM-AA mutant IQ domain of CaV2.1 (from UniProt P54282 1848-1964) (domain or fragment)
